Assays:
Assay type in all cases: biochemical
PKC = assay: In vitro phosphorylation by PKC (average of isoforms alpha, epsilon, delta, theta); conditions: for PKC average: average of PKC-alpha, -epsilon, -theta, normalized to best substrate; for average (phosphorylation by PKC-theta, -delta, -epsilon, -alpha): average over PKC-theta, -epsilon and -alpha at 10 and 1 uM peptide, relative to best substrate
Method: (§1) The conditions of the kinase assay and the amount of active kinase used varied with the kinase and with the accuracy needed. For a typical experiment, 5-20 ng of kinase was used per well and each peptide pool was assayed in duplicate wells. Note that the absolute amount of kinase used was not usually a critical parameter, because the desired information related to specificity of the kinase not its absolute activity, and robustness of the assay depends on comparisons of the same amount of kinase on different peptides. The combination of kinase concentration and assay duration was modified to assure that the stoichiometry of peptide phosphorylation never exceeded 5%. The choice of kinase buffer depended on the kinase being analyzed. For studies of PKC, 100 mM HEPES, 0.05% Triton-X100, 1 mM CaCl2, 20 mM MgCl2, 0.2 mg/ml phosphatidyl serine (Avanti Polar Lipids), PMA 100 ng/ml was typically used. The lipid stock was prepared by transferring 3 mg phosphatidyl serine into iced mixture of 450 μl water plus 50 μl of 10% Triton-X100, sonicating 10 times on ice for 1 sec each.
(§2) The kinase reaction mixture was assembled by sequential addition to a tube held on ice of: 5 μl peptide (100 μM for final concentration of 10 μM), 15 μl of kinase (typically 5 ng/well, in appropriate kinase buffer), 30 μl of ATP (1 uCi/well of ^32P-gamma ATP in a stock of 167 μM cold ATP in the kinase buffer; for final concentration for 100 μM ATP). The mixture was rapidly warmed to desired reaction temperature (30° C. for PKC) and incubated for the desired duration (usually 10 minutes). The kinase assay was terminated by transfer to 4° C. water batch, and rapid addition of an equal volume (50 μl) of stop solution [0.1M ATP+0.1M EDTA in water, pH 8].
(§3) The peptides were then captured from the reaction mixture by transfer to a Reacti-Bind Streptavidin High Binding Capacity Coated Plates (HBC) (Pierce Biotechnology) as follows. The HBC plates were pre-rinsed three times with PBS/Tween PBS/Tween20 0.05% (PBS/Tween). Part of all of the reaction mixture was then transferred wells of a HBC plate pre-filled with 90 μl of phosphate-buffered saline (PBS); typically each aliquots of each phosphorylation reaction were transferred to duplicate HBC plates to assure accuracy by additional replication
(§4) For kinase assays done at the standard peptide concentration of 10 μM, the peptide concentration in the reaction mixture becomes 5 μM after addition of the stop solution; consequently 10 μl of the reaction (50 pMoles of peptide) was transferred to the HBC plate. More generally, the amount of reaction mixture transferred was estimated to be about 50 pMoles of peptide. […] The HBC plates were incubated for 0.5 to 1.5 hr at room temperature for complete binding of biotinylated peptides to plate-bound streptavidin. The HBC plates were then washed extensively with PBS/Tween. Five washes were done routinely and additional wash steps were added if the wash solution removed from the plate had measurable radioactivity as detected using a Geiger counter. This step is essential to obtaining a good the signal to noise ratio because the fraction of radioactivity incorporated in the peptides was a tiny fraction of the total in the reaction mixture. The wells were air-dried. A volume of 40-50 μl of microScint-20 (Packard Instruments) was added to each well. The plates were covered with stick-on film sheet. Radioactive emissions were measured in a TopCount NXT Microplate Scintillation and Luminescence Counter (Packard Instruments). Typically samples were counted for 5 minutes (or more) to improve the signal to noise ratio when counts were low.
Many peptides that are good substrates for PKC enzymes were identified using the methods of the invention. For example, Tables 4 and 5 provide a listing of peptides identified as potentially useful kinase substrates. […]

PKC-zeta = molecular target: T1, PKC-zeta (Homo sapiens, UniProt Q05513); assay: In vitro kinase assay: peptide phosphorylation by PKC-zeta; conditions: for PKC-zeta phosphorylation: normalized to best substrate
T1 construct: purchased Calbiochem
T1 sequence (Q05513 1-592): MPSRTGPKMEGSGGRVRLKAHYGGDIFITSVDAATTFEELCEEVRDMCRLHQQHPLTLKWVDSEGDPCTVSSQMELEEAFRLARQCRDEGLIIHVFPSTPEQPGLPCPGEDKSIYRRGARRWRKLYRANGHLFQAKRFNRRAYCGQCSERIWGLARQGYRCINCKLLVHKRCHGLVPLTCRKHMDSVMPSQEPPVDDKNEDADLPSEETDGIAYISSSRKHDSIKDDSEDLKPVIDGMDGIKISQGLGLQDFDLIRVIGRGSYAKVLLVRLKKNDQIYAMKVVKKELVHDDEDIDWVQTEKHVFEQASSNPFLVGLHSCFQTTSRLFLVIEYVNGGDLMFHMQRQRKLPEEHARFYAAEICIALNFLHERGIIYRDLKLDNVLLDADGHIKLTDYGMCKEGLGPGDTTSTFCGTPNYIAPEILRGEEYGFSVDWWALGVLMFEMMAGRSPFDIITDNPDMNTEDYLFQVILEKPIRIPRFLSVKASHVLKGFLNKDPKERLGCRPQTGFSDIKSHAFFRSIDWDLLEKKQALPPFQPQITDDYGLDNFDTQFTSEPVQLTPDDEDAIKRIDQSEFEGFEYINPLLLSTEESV
Method: (§5) Catalytically active preparations of the kinases of interest were either purchased or prepared. Purchased and tested active kinase preparations including the following: PKC-alpha, PKC-delta, PKC-epsilon, PKC-zeta, PKC-mu, PKA, PKG from Calbiochem, ROK alpha/ROCK-II, active from Upstate Biotechnology, and AKT1 from Panvera.
as §1, §2, §3
as §4, with “low. […]” for “low.”

PKC-alpha = molecular target: T2, PKC-alpha (Homo sapiens, UniProt P17252); assay: In vitro kinase assay: peptide phosphorylation by PKC-alpha; conditions: for PKC alpha phosphorylation: normalized to best substrate
T2 construct: purchased Calbiochem
Method: as §5, §1, §2, §3
as §4, with “low. […]” for “low.”

| Substance | PKC average (PKC) [%] | PKC-zeta phosphorylation (PKC-zeta) [%] | PKC alpha phosphorylation (PKC-alpha) [%] | average (phosphorylation by PKC-theta, -delta, -epsilon, -alpha) (PKC) | phosphorylation by PKC zeta (PKC-zeta; peptide concentration 1 uM) | phosphorylation by PKC zeta (PKC-zeta; peptide concentration 10 uM) | phosphorylation by PKC alpha (PKC-alpha; peptide concentration 1 uM) | phosphorylation by PKC alpha (PKC-alpha; peptide concentration 10 uM) |
| --- | --- | --- | --- | --- | --- | --- | --- | --- |
| 112 (KRPGKKGSNKRPGKR) [compound 112] | 12 | 1 | 10 | – | – | – | – | – |
| 113 (GENVLKKSMKSRVKG) [compound 113] | 10 | 1 | 16 | – | – | – | – | – |
| 114 (KKKKRASFKRKSSKKG) [compound 114] | – | – | – | 95 | 45 | 51 | 100 | 100 |
| 115 (NRKKKRTSFKRKA) [compound 115] | – | – | – | 80 | 11 | 10 | 55 | 56 |
| 116 (EEGTFRSSIRRLSTRRR) [compound 116] | – | – | – | 71 | 100 | 100 | 70 | 57 |
| 117 (NRKKKRTSFKRKA) [compound 117] | – | – | – | 70 | 20 | 11 | 40 | 39 |
| 118 (RPQNTLKASKKKKRASFKRK) [compound 118] | – | – | – | 64 | 46 | 57 | 46 | 60 |
| 119 (KKRFSFKKSFKLSGFSFKKN) [compound 119] | – | – | – | 61 | 20 | 20 | 94 | 98 |
| 120 (AKRRRLSSLRASTSK) [compound 120] | – | – | – | 52 | 43 | 34 | 55 | 58 |
| 121 (LRRRSLRRSNSISKSPGP) [compound 121] | – | – | – | 50 | 60 | 56 | 33 | 29 |
| 122 (RAITSTLASSFKRRR) [compound 122] | – | – | – | 49 | 20 | 17 | 43 | 44 |
| 123 (KKRFSFKKSFKLSGFSFKKN) [compound 123] | – | – | – | 49 | 20 | 20 | 58 | 73 |
| 124 (PRLIRRGSKKRPAR) [compound 124] | – | – | – | 49 | 45 | 32 | 48 | 24 |
| 125 (PLKEKKRERKTSSKSSVRKR) [compound 125] | – | – | – | 48 | 13 | 12 | 34 | 31 |
| 126 (KAIKAIEGGQKFARKSTRRS) [compound 126] | – | – | – | 46 | 46 | 56 | 36 | 34 |
| 127 (SQVQKQRSAGSFKRNSIKKI) [compound 127] | – | – | – | 43 | 19 | 19 | 40 | 39 |
| 128 (QQVDRERPHVRRRRGTFKRS) [compound 128] | – | – | – | 42 | 14 | 9 | 25 | 33 |
| 129 (VQRHRSMRKTFARYLSFRRD) [compound 129] | – | – | – | 40 | 51 | 31 | 58 | 37 |
